Results on one substance are retold here after patent publication US20240343803A1.

pEC50, pIC50: −log10 of the molar value.

Test [1] has as its target cynomolgus monkey TIGIT ECD-mFc (cynomolgus monkey). In words: ELISA, cynomolgus TIGIT ECD-mFc captured by anti-mouse IgG; negative control.
The target in test [2] is human PVRIG (AcroBiosystems, Cat NO. PVG-H52H4) (human) (UniProt Q6DKI7). Nature of the test: ELISA, coated human PVRIG; negative control.
Test [3] concerns the target human PVRIG-mFc protein (Acro, PVG-H5253) (human) (UniProt Q6DKI7). Nature of the test: HTRF competition, PVRIG-mFc with Bio-CD112-His as competitor; negative control.
Test [4] concerns the target cynomolgus monkey PVRIG (Novoprotein, Cat NO. C09B) (cynomolgus monkey). Nature of the test: ELISA, coated cynomolgus PVRIG; negative control.

Sequence of cynomolgus monkey PVRIG (Novoprotein, Cat NO. C09B) (cynomolgus monkey) (chain, as listed by the source): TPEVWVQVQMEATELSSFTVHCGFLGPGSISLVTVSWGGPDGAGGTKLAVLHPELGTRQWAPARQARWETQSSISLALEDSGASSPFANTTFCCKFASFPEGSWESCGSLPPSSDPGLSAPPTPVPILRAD
Sequence of cynomolgus monkey TIGIT ECD-mFc (cynomolgus monkey) (chain, as listed by the source limits assumed): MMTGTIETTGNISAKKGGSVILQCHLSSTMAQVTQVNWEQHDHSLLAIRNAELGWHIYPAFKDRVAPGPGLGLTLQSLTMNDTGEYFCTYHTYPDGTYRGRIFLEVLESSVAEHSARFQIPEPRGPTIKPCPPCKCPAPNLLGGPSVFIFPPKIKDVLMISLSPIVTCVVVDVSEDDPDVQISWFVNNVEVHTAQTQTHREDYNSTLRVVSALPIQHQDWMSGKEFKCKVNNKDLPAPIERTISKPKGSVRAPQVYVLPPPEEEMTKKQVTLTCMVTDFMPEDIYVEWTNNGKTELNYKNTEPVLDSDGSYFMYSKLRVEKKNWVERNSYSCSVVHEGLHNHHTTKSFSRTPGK
Sequence of human PVRIG (AcroBiosystems, Cat NO. PVG-H52H4) (human) (Q6DKI7 41-171 limits assumed, form in doubt): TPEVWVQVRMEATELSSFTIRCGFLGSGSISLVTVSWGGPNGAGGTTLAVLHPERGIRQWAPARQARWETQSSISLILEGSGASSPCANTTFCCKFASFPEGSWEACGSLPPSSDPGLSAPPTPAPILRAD
Sequence of human PVRIG-mFc protein (Acro, PVG-H5253) (human) (Q6DKI7 41-171 limits assumed, form in doubt): as above

On to anti-Fluorescein-hIgG1 (antibody), for which the results for the pEC50 in test [1], in test [2] and in test [4] were 9.16, 4.39 and 8.40, respectively. Also, the pIC50 in test [3] is 10.52.
